# Measured values reported in patent US20200055896A1, “SUBSTRATES RECOGNIZED BY FIBROBLAST ACTIVATION PROTEIN (FAP) AND METHODS OF USING THE SAME” (GENENTECH, INC., priority 2017, published 2020).
# No end group written: not given here.
# What was measured:
# recombinant human FAP = target: T1, recombinant human FAP (Homo sapiens, UniProt Q12884); test: FRET-quench assay: probe cleavage by recombinant human FAP; assay type: biochemical; details: 1 nM enzyme
# T1 construct: (residues L26-D760 and L26-D761, respectively); octa-His (N); made in house; host or cells: transiently transfected CHO cells (conditioned media)
# T1 sequence (Q12884 26-760): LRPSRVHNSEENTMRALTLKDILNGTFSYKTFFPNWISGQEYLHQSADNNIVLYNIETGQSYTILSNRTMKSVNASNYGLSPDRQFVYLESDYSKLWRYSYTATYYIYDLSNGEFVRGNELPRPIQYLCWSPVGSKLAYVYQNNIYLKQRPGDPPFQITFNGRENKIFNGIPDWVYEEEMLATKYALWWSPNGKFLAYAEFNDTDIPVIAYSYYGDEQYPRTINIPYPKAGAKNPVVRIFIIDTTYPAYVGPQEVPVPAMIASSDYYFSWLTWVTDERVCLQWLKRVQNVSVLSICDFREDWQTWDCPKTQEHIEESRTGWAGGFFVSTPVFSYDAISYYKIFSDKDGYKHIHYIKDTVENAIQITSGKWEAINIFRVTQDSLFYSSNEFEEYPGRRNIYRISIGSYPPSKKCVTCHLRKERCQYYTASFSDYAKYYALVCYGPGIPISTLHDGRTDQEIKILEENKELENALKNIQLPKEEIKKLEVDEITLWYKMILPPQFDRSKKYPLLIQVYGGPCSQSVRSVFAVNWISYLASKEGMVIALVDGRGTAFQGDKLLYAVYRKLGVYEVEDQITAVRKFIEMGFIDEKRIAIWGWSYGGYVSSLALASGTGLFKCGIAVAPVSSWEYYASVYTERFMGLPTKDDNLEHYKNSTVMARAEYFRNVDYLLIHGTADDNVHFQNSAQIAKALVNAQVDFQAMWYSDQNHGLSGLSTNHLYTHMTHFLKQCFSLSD
# Description: (§1) Human prolyl oligopeptidase (PREP, 4308-SE), DPPIV (1180-SE), DPP9 (5419-SE), and DPPII/DPP7 (3438-SE) proteins were purchased from R&D Systems. Human DPP8 (BML-SE527) protein was purchased from Enzo Life Sciences. N-terminal octa-His-tagged human and mouse FAP proteins containing the extracellular domain (residues L26-D760 and L26-D761, respectively) were purified from the conditioned media of transiently-transfected CHO cells, by immobilized metal affinity chromatography (IMAC), followed by size exclusion chromatography (SEC).
# (§2) Peptides of the region flanking the C-terminal human FGF21 cleavage site (VGPSQG) or a variant with D-alanine at P2 (VaPSQG) were synthesized (Anaspec, Inc.), containing an amine-terminal donor (HyLite Fluor 488 or Cy5.5 for aP NIRF) and a dark quencher-acceptor (QXL 520 or QSY21 for aP NIRF) conjugated to a supplementary C-terminal lysine. ANPFAP (Bioconjugate Chem 23:1704-11) and aP NIRF were synthesized by CPC Scientific (Sunnyvale, Calif.). Assays were conducted at 37° C. in 50 mM HEPES (pH 7.2), 150 mM NaCl, 1 mM EDTA, 0.1 mg/ml BSA. The excitation/emission wavelengths of cleaved peptide are 490/520 nm or 675/695 nm for ANPFAP and aP NIRF. Fluorescence was monitored on a Tecan M1000 Pro plate reader in kinetic mode. Except where indicated otherwise, measurements of serum or plasma FAP activity were performed with the peptide substrate concentration at 6 μM and a 10-fold dilution of serum or plasma in assay buffer.
# recombinant human PREP = target: T2, recombinant human PREP (Homo sapiens, UniProt P48147); test: FRET-quench assay: probe cleavage by recombinant human PREP; assay type: biochemical; details: 1 nM enzyme
# T2 construct: purchased R&D Systems 4308-SE
# T2 sequence (P48147 1-710): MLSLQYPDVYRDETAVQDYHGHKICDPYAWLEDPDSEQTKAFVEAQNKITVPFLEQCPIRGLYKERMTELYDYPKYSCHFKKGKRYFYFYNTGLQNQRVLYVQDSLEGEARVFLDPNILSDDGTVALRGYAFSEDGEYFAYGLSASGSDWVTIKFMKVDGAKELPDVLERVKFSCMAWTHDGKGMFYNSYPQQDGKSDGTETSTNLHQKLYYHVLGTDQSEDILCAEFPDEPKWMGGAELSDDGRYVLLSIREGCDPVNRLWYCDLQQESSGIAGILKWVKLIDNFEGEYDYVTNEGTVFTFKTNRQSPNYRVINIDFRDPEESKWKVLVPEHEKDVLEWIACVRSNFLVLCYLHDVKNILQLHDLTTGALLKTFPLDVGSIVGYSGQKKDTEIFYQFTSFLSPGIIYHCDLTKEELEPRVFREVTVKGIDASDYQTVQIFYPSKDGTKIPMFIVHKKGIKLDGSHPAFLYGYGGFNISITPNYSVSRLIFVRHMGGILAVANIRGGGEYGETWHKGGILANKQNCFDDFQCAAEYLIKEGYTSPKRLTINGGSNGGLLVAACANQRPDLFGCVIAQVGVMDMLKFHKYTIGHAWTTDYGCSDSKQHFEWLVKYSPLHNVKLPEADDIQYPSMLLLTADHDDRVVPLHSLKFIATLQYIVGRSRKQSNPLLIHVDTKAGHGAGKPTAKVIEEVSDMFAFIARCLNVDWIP
# Description: as §1, §2
Substance,cleavage by recombinant human FAP (recombinant human FAP),cleavage by recombinant human PREP (recombinant human PREP)
GP probe: human FGF21 cleavage-site peptide VGPSQG with amine-terminal HyLite Fluor 488 donor and QXL 520 quencher on supplementary C-terminal lysine ({HyLite Fluor 488}-VGPSQGK(QXL 520)),readily cleaved,readily cleaved
aP probe: FGF21-based peptide VaPSQG (D-alanine at P2) with HyLite Fluor 488 donor and QXL 520 quencher,clearly detectable,unable to digest
